Measurements published in patent publication US20100260668A1 (published 2010).

Assays:
RON = target: T1, RON (UniProt Q04912 25-1400, limits assumed); experiment: flow cytometry on cells carrying the target, 2 ug/mL; C-terminal VD
T1 construct: whole, on cells; also called macrophage stimulating protein receptor tyrosine kinase; MSP receptor

[1] = target: T2, human DLL4 extracellular domain (human, UniProt Q9NR61 27-529, biotin label in the Notch-1 competition ELISA (sites not given)); experiment: competition ELISA: biotin-labelled human DLL4 ECD pre-mixed with DVD-Ig, then on coated human Notch-1 (competitor Notch-1)
T2 construct: extracellular domain; also called biotin labeled human DLL4 extracellular domain

DLL4 [2] = target: T3, DLL4 (human, UniProt Q9NR61 27-685); experiment: flow cytometry on cells carrying the target, 2 ug/mL; C-terminal VD
T3 construct: whole, on cells; also called human DLL4

[3] = target: T4, VEGF (VEGF 1-165 aa, R&D Systems 293-VE-010) (UniProt P15692 27-191); experiment: Direct bind ELISA, VEGF coated on plate; VEGF domain N-term., HC long/LC long
T4 construct: bought reagent; also called vascular endothelial growth factor

DLL4 [4] = target: T3, DLL4; experiment: flow cytometry on 293G-human DLL4 cells; DLL4 VD N-terminal
ErbB3 on A431 cells [5] = target: T5, ErbB3 on A431 cells (human, UniProt P21860 20-1342); experiment: cell-based or functional assay
EGFR on A431 cells [6] = target: T6, EGFR on A431 cells (human, UniProt P00533 25-1210); experiment: cell-based or functional assay
ErbB3 on A431 cells [7] = target: T5, ErbB3 on A431 cells; experiment: cell-based or functional assay; remark: listed apart in the source
EGFR on A431 cells [8] = target: T6, EGFR on A431 cells; experiment: cell-based or functional assay; remark: listed apart in the source

T4 sequence (P15692 other isoform, or with tags, fused parts or gaps limits assumed): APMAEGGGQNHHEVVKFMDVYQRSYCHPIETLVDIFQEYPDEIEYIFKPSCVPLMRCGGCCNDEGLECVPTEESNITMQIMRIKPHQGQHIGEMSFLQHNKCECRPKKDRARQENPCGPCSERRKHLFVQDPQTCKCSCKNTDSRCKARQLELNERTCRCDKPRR

B1: DVD034 (bispecific antibody, human IgG1, kappa)
heavy: not shown
light: DIQMTQSPSSVSASVGDRVTITCRASQGISSWLAWYQQKPGKAPNLLIYEASSLQSGVPSRFGGSGSGTDFTLTISSLQPEDFATYYCQQANGFPWTFGQGTKVEIKRTVAAPDVVMTQSPLSLPVTPGEPASISCRSSQSLLHSNGFNYVDWYLQKPGQSPHLLIYFGSYRASGVPDRFSGSGSGTDFTLKISRVEAEDVGVYYCMQALQTPPWTFGQGTKVEIRRTVAAPSVFIFPPSDEQLKSGTASVVCLLNNFYPREAKVQWKVDNALQSGNSQESVTEQDSKDSTYSLSSTLTLSKADYEKHKVYACEVTHQGLSSPVTKSFNRGEC
notes: DVD-Ig; outer AB012 (HGF), inner AB005 (RON); also called HGF and RON DVD-Ig
RON
  FACS Geometric Mean C-terminal: 0.39

B2: DVD258 (PLGF (seq. 1) N-terminal / DLL-4 (seq. 1) C-terminal DVD-Ig) (bispecific antibody, human IgG1, kappa)
heavy: not shown
light: DIVLTQSPDSLAVSLGERVTMNCKSSQSLLNSGMRKSFLAWYQQKPGQSPKLLIYWASTRESGVPDRFTGSGSGTDFTLTISSVQAEDVAVYYCKQSYHLFTFGSGTKLEIKRTVAAPDIQMTQSPSSLSASVGDRVTITCRASQDVSTAVAWYQQKPGKAPKLLIYSASFLYSGVPSRFSGSGSGTDFTLTISSLQPEDFATTYYCQQSYTGTVTFGQGTKVEIKRTVAAPSVFIFPPSDEQLKSGTASVVCLLNNFYPREAKVQWKVDNALQSGNSQESVTEQDSKDSTYSLSSTLTLSKADYEKHKVYACEVTHQGLSSPVTKSFNRGEC
notes: also called VD258H; VD258L
[1]
  IC50: 17.5 nM

B3: DVD258 (bispecific antibody, human IgG1, kappa)
heavy: not shown
light: B2 light
notes: DVD-Ig; outer AB047 (PlGF), inner AB015 (DLL4); also called PlGF and DLL4 DVD-Ig
DLL4 [2]
  FACS Geometric Mean C-terminal: 5.57

B4: DVD496 (bispecific antibody, human IgG1, kappa)
heavy: not shown
light: DIQMTQSPSSLSASVGDRVTITCRASQDVSTAVAWYQQKPGKAPKLLIYSASFLYSGVPSRFSGSGSGTDFTLTISSLQPEDFATYYCQQSYTTPPTFGQGTKVEIKRTVAAPSVFIFPPDIQMTQSSSYLSVSLGGRVTITCKASDHINNWLAWYQQKPGNAPRLLISGATSLETGVPSRFSGSGSGKDYTLSITSLQTEDVATYYCQQYWSIPLTFGAGTKLELKRTVAAPSVFIFPPSDEQLKSGTASVVCLLNNFYPREAKVQWKVDNALQSGNSQESVTEQDSKDSTYSLSSTLTLSKADYEKHKVYACEVTHQGLSSPVTKSFNRGEC
notes: DVD-Ig; N-term; AB070 (VEGF), C-term; AB072 (DLL4); HC linker long, LC linker long; also called DVD-Ig DVD496; DVD496H/DVD496L
[3]
  EC50: 108 nM

B5: DVD485 (bispecific antibody, human IgG1, kappa)
heavy: not shown
light: DIQMTQSPSSLSASVGDRVTITCRASQDVSTAVAWYQQKPGKAPKLLIYSASFLYSGVPSRFSGSGSGTDFTLTISSLQPEDFATTYYCQQSYTGTVTFGQGTKVEIKRTVAAPSVFIFPPDIQMTQSPSSLSASVGDRVTITCRASQVIRRSLAWYQQKPGKAPKLLIYAASNLASGVPSRFSGSGSGTDFTLTISSLQPEDFATYYCQQSNTSPLTFGQGTKVEIKRTVAAPSVFIFPPSDEQLKSGTASVVCLLNNFYPREAKVQWKVDNALQSGNSQESVTEQDSKDSTYSLSSTLTLSKADYEKHKVYACEVTHQGLSSPVTKSFNRGEC
notes: DVD-Ig; outer AB015 (DLL4), inner AB071 (VEGF); also called DLL4 and VEGF DVD-Ig, HC linker short, LC linker long
DLL4 [4]
  EC50: 0.89 nM

B6: DVD043 (VEGF (seq. 1) N-terminal / DLL4 (seq. 1) C-terminal DVD-Ig) (bispecific antibody, human IgG1, kappa)
heavy: not shown
light: DIQMTQSPSSLSASVGDRVTITCSASQDISNYLNWYQQKPGKAPKVLIYFTSSLHSGVPSRFSGSGSGTDFTLTISSLQPEDFATYYCQQYSTVPWTFGQGTKVEIKRTVAAPDIQMTQSPSSLSASVGDRVTITCRASQDVSTAVAWYQQKPGKAPKLLIYSASFLYSGVPSRFSGSGSGTDFTLTISSLQPEDFATTYYCQQSYTGTVTFGQGTKVEIKRTVAAPSVFIFPPSDEQLKSGTASVVCLLNNFYPREAKVQWKVDNALQSGNSQESVTEQDSKDSTYSLSSTLTLSKADYEKHKVYACEVTHQGLSSPVTKSFNRGEC
notes: also called DVD043H/DVD043L
[1]
  IC50: 13.1 nM

B7: DVD043 (bispecific antibody, human IgG1, kappa)
heavy: not shown
light: B6 light
notes: DVD-Ig; also called VEGF and DLL4 DVD-Ig
DLL4 [2]
  FACS Geometric Mean C-terminal: 68.4

B8: DVD047 (bispecific antibody, human IgG1, kappa)
heavy: not shown
light: DIQMTQSPSSLSASVGDRVTITCSASQDISNYLNWYQQKPGKAPKVLIYFTSSLHSGVPSRFSGSGSGTDFTLTISSLQPEDFATYYCQQYSTVPWTFGQGTKVEIKRTVAAPDVVMTQSPLSLPVTPGEPASISCRSSQSLLHSNGFNYVDWYLQKPGQSPHLLIYFGSYRASGVPDRFSGSGSGTDFTLKISRVEAEDVGVYYCMQALQTPPWTFGQGTKVEIRRTVAAPSVFIFPPSDEQLKSGTASVVCLLNNFYPREAKVQWKVDNALQSGNSQESVTEQDSKDSTYSLSSTLTLSKADYEKHKVYACEVTHQGLSSPVTKSFNRGEC
notes: DVD-Ig; also called VEGF and RON DVD-Ig
RON
  FACS Geometric Mean C-terminal: 0.51

B9: DVD471 (bispecific antibody, human IgG1, kappa, L234A L235A)
heavy: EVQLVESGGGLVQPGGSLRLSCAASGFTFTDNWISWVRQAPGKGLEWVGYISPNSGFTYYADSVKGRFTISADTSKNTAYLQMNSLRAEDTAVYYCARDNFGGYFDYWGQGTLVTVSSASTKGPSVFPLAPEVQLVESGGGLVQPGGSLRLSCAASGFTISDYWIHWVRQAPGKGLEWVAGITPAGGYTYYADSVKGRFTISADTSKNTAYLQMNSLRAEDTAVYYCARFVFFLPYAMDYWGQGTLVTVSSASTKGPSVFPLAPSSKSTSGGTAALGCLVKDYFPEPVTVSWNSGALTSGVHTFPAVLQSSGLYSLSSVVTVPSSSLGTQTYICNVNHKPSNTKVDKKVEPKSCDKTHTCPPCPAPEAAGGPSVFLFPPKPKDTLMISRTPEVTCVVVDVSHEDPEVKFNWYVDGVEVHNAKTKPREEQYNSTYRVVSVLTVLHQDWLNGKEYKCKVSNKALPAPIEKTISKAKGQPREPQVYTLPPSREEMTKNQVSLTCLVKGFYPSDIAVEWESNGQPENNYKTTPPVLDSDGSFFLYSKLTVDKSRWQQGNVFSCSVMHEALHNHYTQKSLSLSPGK
light: DIQMTQSPSSLSASVGDRVTITCRASQDVSTAVAWYQQKPGKAPKLLIYSASFLYSGVPSRFSGSGSGTDFTLTISSLQPEDFATTYYCQQSYTGTVTFGQGTKVEIKRTVAAPSVFIFPPDIQMTQSPSSLSASVGDRVTITCRASQDVSTAVAWYQQKPGKAPKLLIYSASFLYSGVPSRFSGSGSGTDFTLTISSLQPEDFATYYCQQSYTTPPTFGQGTKVEIKRTVAAPSVFIFPPSDEQLKSGTASVVCLLNNFYPREAKVQWKVDNALQSGNSQESVTEQDSKDSTYSLSSTLTLSKADYEKHKVYACEVTHQGLSSPVTKSFNRGEC
notes: DVD-Ig; also called DLL4 and VEGF DVD-Ig, HC linker long, LC linker long
DLL4 [4]
  EC50: 1.13 nM

B10: DVD498 (bispecific antibody, human IgG1, kappa)
heavy: not shown
light: DIQMTQSPSSLSASVGDRVTITCRASQVIRRSLAWYQQKPGKAPKLLIYAASNLASGVPSRFSGSGSGTDFTLTISSLQPEDFATYYCQQSNTSPLTFGQGTKVEIKRTVAAPSVFIFPPDIQMTQSSSYLSVSLGGRVTITCKASDHINNWLAWYQQKPGNAPRLLISGATSLETGVPSRFSGSGSGKDYTLSITSLQTEDVATYYCQQYWSIPLTFGAGTKLELKRTVAAPSVFIFPPSDEQLKSGTASVVCLLNNFYPREAKVQWKVDNALQSGNSQESVTEQDSKDSTYSLSSTLTLSKADYEKHKVYACEVTHQGLSSPVTKSFNRGEC
notes: DVD-Ig; N-term; AB071 (VEGF), C-term; AB072 (DLL4); HC linker long, LC linker long; also called DVD-Ig DVD498; DVD498H/DVD498L
[3]
  EC50: 30.6 nM

B11: AB008 (anti-CD-22 antibody, used as control) (antibody, human IgG1, kappa, V domains shown)
VH: QVQLVQSGAEVKKPGSSVKVSCKASGYTFTSYWLHWVRQAPGQGLEWIGYINPRNDYTEYNQNFKDKATITADESTNTAYMELSSLRSEDTAFYFCARRDITTFYWGQGTTVTVSS
VL: DIQLTQSPSSLSASVGDRVTMSCKSSQSVLYSANHKNYLAWYQQKPGKAPKLLIYWASTRESGVPSRFSGSGSGTDFTFTISSLQPEDIATYYCHQYLSSWTFGGGTKLEIKR
ErbB3 on A431 cells [5]
  Inhibition Of ErbB3 Phosphorylation (% Inhibition At 60 nM Ab/DVD): 0%
EGFR on A431 cells [6]
  Inhibition Of EGFR Phosphorylation (% Inhibition At 60 nM Ab/DVD): 4%
ErbB3 on A431 cells [7]
  Inhibition Of A431 Proliferation (% Inhibition At 21.6 nM Ab/DVD): 6%
EGFR on A431 cells [8]
  Inhibition Of A431 Proliferation (% Inhibition At 21.6 nM Ab/DVD): 6%
